The nanobody polyreactivity screen of Harvey et al. (2022)

Assay: yeast display, Sf9 membrane polyspecificity reagent, FACS + sequencing; frameworks hold sequencing errors
Method in brief: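 Sorting gates, low and high (top ~1%), were placed on anti-HA fluorescence to track expression and on streptavidin fluorescence to track reagent binding. A clone's polyreactivity label is taken from the gate it came out of. The reagent was 10% biotinylated, detergent-solubilized Sf9 membrane, applied for 1 hour at 4 °C to galactose-induced yeast display cells.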

Sequence	polyreactivity (PSR sort gate)
QVQLVESGGGLVQAGGSLRLSCAASGYTFDLYAMGWYRQAPGKERELVADISSGGSTNYADSVKGRFTISRDNAKNTVYLQMNSLKPEDTAVYYCAVDADRTLFGQYYVSEYGGGYWGQGTQVTVSS	low polyreactivity
QVQLVESGGGLVQAGGSLRLSCAASGSTFSYYAMGWYRQAPGKERELVAAITYSVGSTYYADSVKGRFTISRDNAKNTVYLQMNSLKPEDTAVYYCNKRYYYSRANYPYDYWGQGTQVTVSS	low polyreactivity
QVQLVESGGGLVQAGGSLRLSCAASGSIFSYNAMGWYRQAPGKERELVAAIDWSGGSTYYADSVKGRFTISRDNAKNTVYLQMNSLKPVDTAVYYCNAVGVFYYSYHYHQYDYWGQGTQVTVSS	low polyreactivity
QVQLVESGGGLVQAGGSLRLSCAASGRTFYYYAMGWYRQAPGKERELVAAISRSGGITYYADSVKGRFTISRDNAKNTVYLQMNSLKPEDTAVYYCAADAWFSLRYAPRSYAYGYWGQGTQVTVSS	low polyreactivity
QVQLVESGGGLVQAGGSLRLSCAASGFTFITNAMGLYRQAPGKERELVASISIGGSTNYADSVKGRFTISRDNAKNTVYLQMNSLKPEDTAVYYCAARVYRRLFLPGRYGRPLGYWGQGTQVTVSS	high polyreactivity
QVQLVESGGGLVQAGGSLRLSCAASGSIFKYNTMGWYRQAPRKERELVAAINGGGSTYYADSVKGRFTISRDNAKNTVYLLMNSLKPEDTAVYYCNARQWYWESPDDYWGQGTQVTVSS	low polyreactivity
QVQLVESGGGLVQAGGSLRLSCAASGSTFASYAMGWYRQAPGKEREFVAAISRSGGSTYYADSVKGRFTISRDNAKNTVYLQMTSLKPEDTAVYYCAARSPSADEYYYWGQGTQVTVSS	low polyreactivity
QVQLVESGGGLVQAGGSLRLSCAASGFIFATYTMGWYRQAPGKERELVAAITWRGGSTYYADSVKGRFTISRDNAKNTVYLQMNSLKPEDTAVYYCAAPDVYSYRYVEDDYWGQGTQVTVSS	low polyreactivity
QVQHVESGGGLVQAGGSLRLSCAASGYTYDPNAMGWYRQAPGKERELVAAISRIGGSTYYADSVKGRFRISRDNAKNTVYLQMNSLKREDTAVYYCAQEYYDGYFPTFDYDYWGQGTQVTVSS	low polyreactivity
QVQLVESGGGLVQAGGSLRLSCAASGRIFGFNAMGWYRQAPGKERELVAGITDSSGRTNYADSVKGRFTISRDNAKNTVYLQMNSLKPEDTAVYYCAKASAYGLANDYDYWGQGTQVTVSS	low polyreactivity
QVQLVESGGGLVQAGGSLRLSCAASGSTYHYAMGWYRQAPGKERELVASITWRGDTTYYADSVKGRFTISRDNAKNTVYLQMNSLKPEDTAVYYGATVPYSPPSAGPEYDYWGQGTQVTVSS	high polyreactivity
QVQLVESGAGIVQAGGSLRLSCAASGLTFKVYAMGWYRQAPGKERELVAAISWSGGSTYYADSVKGRFTISRDNAKNTGYLQRNSLKPEDTAVYYCAVEPSYYVVFFQYDYWGQGTQVTVSS	low polyreactivity
QVQLGESGGGLVQAGGSLRLSCAASGRTFGYNAIGWYRQAPGKEMELVAVIRSGGSTYYADSVKGRFTISRDNAKNTVYLQMNSLKPEDTAVYYCNADVLPTWYSPELDYWGQGTQVTVSS	low polyreactivity
QVQLLESGGGLVQAGGSLRLSCAASGSIFRGYAMGWYRQAPGKERELVAGIRGSDGSTYYADSVKGRFTISRDNAKNTVYLQMNSLKPEDTAVYYCAADRRYLDRDKHRYGYWGQGTQVTVSS	low polyreactivity
QVQLVESGGRLVQAGGSLRLSCAPSGIIFIWNTMGWYRQAPGKESEFVAAISRSGSGTSYADSVKGRFTISRDNAKNTVYLQMNSLKPEDTAVYYCAARLECPYDMYYWGQGTQVTVSS	low polyreactivity
QVQLVESGTGLVQAGGSLRLSCAASGSIFAYYAMGWYRHAPGKERELVAAISSRGGNTYYADSVKGRFTISRDNAKNNVYLQMNSLKPEDTAVYYCAADYQYSYGEYDYWGHGTQVTVSS	high polyreactivity
QVQLVESGGGLVQAGGSLRLSCDASGSILPGYAMGWYRQEPGKEMELVAAISYRGTSTYYADSVKGRFTISRDNAKNTFYLQMNSLKPEDTAVYYCAAGGSWFRYPPSMDYWGQGTQVTVSS	high polyreactivity
